The assay addresses equine FcRn (large alpha subunit p51) / equine beta-2-microglobulin complex, biotinylated (equine) (UniProt P30441). Description: SPR (Biacore), pH 6. On the technique in general: Surface plasmon resonance follows binding to a sensor surface in real time, without labels.

Residue numbers refer to the chain shown, from its start. Names may count otherwise.

Sequence of UniProt P30441 (P30441 21-118, one chain of several): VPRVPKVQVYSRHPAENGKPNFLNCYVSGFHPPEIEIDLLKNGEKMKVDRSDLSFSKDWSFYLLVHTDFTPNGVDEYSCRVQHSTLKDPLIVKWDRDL

B1: equine IgG1 T286H (antibody, part only; not given: variable domains, not shown: another chain or arm of the molecule)
constant: ASTTAPKVFALAPGCGTTSDSTVALGCLVSGYFPEPVKVSWNSGSLTSGVHTFPSVLQSSGFYSLSSMVTVPASTWTSETYICNVVHAASNFKVDKRIEPIPDNHQKVCDMSKCPKCPAPELLGGPSVFIFPPNPKDTLMITRTPEVTCVVVDVSQENPDVKFNWYMDGVEVRHATTRPKEEQFNSTYRVVSVLRIQHQDWLSGKEFKCKVNNQALPQPIERTITKTKGRSQEPQVYVLAPHPDELSKSKVSVTCLVKDFYPPEINIEWQSNGQPELETKYSTTQAQQDSDGSYFLYSKLSVDRNRWQQGTTFTCGVMHEALHNHYTQKNVSKNPGK
As to B1, the dissociation constant Kd – broadly, the free concentration of one partner at which half of the binding sites on the other are occupied at equilibrium, for simple one-to-one binding – amounted to 0.0224 µM.

B2: equine IgG1 T286I (antibody, part only; not given: variable domains, not shown: another chain or arm of the molecule)
constant: B1 constant with H174I
In the case of B2, the Kd was found to be 0.0182 µM.

B3: equine IgG1 T286K (antibody, part only; not given: variable domains, not shown: another chain or arm of the molecule)
constant: B1 constant with H174K
The molecule B3 displayed a Kd of 0.0373 µM.

B4: equine IgG4 K311C (antibody, part only; not given: variable domains, not shown: another chain or arm of the molecule; small tags and cut ends)
constant: ASTTAPKVFPLASHSAATSGSTVALGCLVSSYFPEPVTVSWNSGALTSGVHTFPSVLQSSGLYSLSSMVTVPASSLKSQTYICNVAHPASSTKVDKKIVIKECNGGCPAECLQVGPSVFIFPPKPKDVLMISRTPTVTCVVVDVGHDFPDVQFNWYVDGVETHTATTEPKQEQFNSTYRVVSVLPIQHCDWLSGKEFKCKVNNKALPAPVERTISKPTGQPREPQVYVLAPHRDELSKNKVSVTCLVKDFYPTDIDIEWKSNGQPEPETKYSTTPAQLDSDGSYFLYSKLTVETNRWQQGTTFTCAVMHEALHNHYTEKSVSKSPGK
The molecule B4 yielded a Kd of 0.0235 µM.

B5: equine IgG4 K311S (antibody, part only; not given: variable domains, not shown: another chain or arm of the molecule)
constant: B4 constant with C189S
B5: the Kd was 0.0124 µM.

B6: equine IgG4 A426V (antibody, part only; not given: Variable domains, not shown: another chain or arm of the molecule)
constant: B4 constant with C189K, A306V
For B6, the Kd amounted to 0.0188 µM.

B7: equine IgG4 K311P (antibody, part only; not given: Variable domains, not shown: another chain or arm of the molecule)
constant: B4 constant with C189P
For B7, the Kd turned out to be 2 µM.

B8: equine IgG4 K311W (antibody, part only; not given: variable domains, not shown: another chain or arm of the molecule)
constant: B4 constant with C189W
The molecule B8 yielded a Kd of 0.0271 µM.

B9: equine IgG4 K311V (antibody, part only; not given: variable domains, not shown: another chain or arm of the molecule)
constant: B4 constant with C189V
B9 yielded a dissociation constant Kd of 0.0224 µM.

B10: equine IgG4 A426N (antibody, part only; not given: variable domains, not shown: another chain or arm of the molecule)
constant: B4 constant with C189K, A306N
The molecule B10 returned a Kd of 0.0187 µM.

B11: equine IgG4 A426L (antibody, part only; not given: variable domains, not shown: another chain or arm of the molecule)
constant: B4 constant with C189K, A306L
B11 showed a Kd of 0.0174 µM.

B12: equine IgG4 K311N (antibody, part only; not given: variable domains, not shown: another chain or arm of the molecule)
constant: B4 constant with C189N
Turning to B12, the equilibrium dissociation constant (Kd) is 0.0411 µM.

B13: equine IgG4 A426W (antibody, part only; not given: variable domains, not shown: another chain or arm of the molecule)
constant: B4 constant with C189K, A306W
With B13, the dissociation constant Kd amounted to 0.0144 µM.

B14: equine IgG4 A426C (antibody, part only; not given: variable domains, not shown: another chain or arm of the molecule)
constant: B4 constant with C189K, A306C
For the molecule B14, the Kd came to 0.0182 µM.

B15: equine IgG4 A426K (antibody, part only; not given: variable domains, not shown: another chain or arm of the molecule)
constant: B4 constant with C189K, A306K
In turn, B15 came in with an equilibrium dissociation constant (Kd) of 0.0145 µM.

B16: equine IgG4 A426R (antibody, part only; not given: variable domains, not shown: another chain or arm of the molecule)
constant: B4 constant with C189K, A306R
Consider B16, for which the Kd was 0.022 µM.

B17: equine IgG4 K311L (antibody, part only; not given: Variable domains, not shown: another chain or arm of the molecule)
constant: B4 constant with C189L
Turning to B17, the dissociation constant Kd was 0.028 µM.

B18: equine IgG4 A426Q (antibody, part only; not given: variable domains, not shown: another chain or arm of the molecule)
constant: B4 constant with C189K, A306Q
Turning to B18, the dissociation constant Kd came out at 0.0212 µM.

B19: equine IgG4 K311H (antibody, part only; not given: variable domains, not shown: another chain or arm of the molecule; small tags and cut ends)
constant: B4 constant with C189H
The molecule B19 registered an equilibrium dissociation constant (Kd) of 0.0356 µM.

B20: equine IgG4 A426P (antibody, part only; not given: Variable domains, not shown: another chain or arm of the molecule)
constant: B4 constant with C189K, A306P
The molecule B20 returned a Kd of 0.0098 µM.

B21: equine IgG4 K311G (antibody, part only; not given: variable domains, not shown: another chain or arm of the molecule; small tags and cut ends)
constant: B4 constant with C189G
B21 returned a Kd of 0.0512 µM.

B22: equine IgG4 A426I (antibody, part only; not given: variable domains, not shown: another chain or arm of the molecule)
constant: B4 constant with C189K, A306I
B22 had a Kd of 0.0174 µM.

B23: equine IgG4 A426D (antibody, part only; not given: variable domains, not shown: another chain or arm of the molecule)
constant: B4 constant with C189K, A306D
As for B23, the Kd turned out to be 0.0155 µM.

B24: equine IgG4 A426T (antibody, part only; not given: Variable domains, not shown: another chain or arm of the molecule)
constant: B4 constant with C189K, A306T
B24 yielded a Kd of 0.0158 µM.

B25: equine IgG4 A426G (antibody, part only; not given: variable domains, not shown: another chain or arm of the molecule)
constant: B4 constant with C189K, A306G
Consider B25, for which the Kd came out at 0.0333 µM.

B26: equine IgG4 K311M (antibody, part only; not given: variable domains, not shown: another chain or arm of the molecule)
constant: B4 constant with C189M
As to B26, the Kd amounted to 0.0164 µM.

B27: equine IgG4 K311T (antibody, part only; not given: variable domains, not shown: another chain or arm of the molecule)
constant: B4 constant with C189T
Molecule B27 yielded a Kd of 0.0255 µM.

B28: equine IgG4 K311R (antibody, part only; not given: variable domains, not shown: another chain or arm of the molecule)
constant: B4 constant with C189R
Turning to B28, the Kd was determined as 0.0161 µM.

B29: equine IgG4 K311E (antibody, part only; not given: variable domains, not shown: another chain or arm of the molecule; small tags and cut ends)
constant: B4 constant with C189E
Take B29: the dissociation constant Kd was 0.0752 µM.

B30: equine IgG4 A426E (antibody, part only; not given: variable domains, not shown: another chain or arm of the molecule)
constant: B4 constant with C189K, A306E
Molecule B30 came in with a Kd of 0.0182 µM.

B31: equine IgG4 A426H (antibody, part only; not given: variable domains, not shown: another chain or arm of the molecule)
constant: B4 constant with C189K, A306H
Consider B31, for which the dissociation constant (Kd) was 0.0178 µM.

B32: equine IgG4 K311Q (antibody, part only; not given: variable domains, not shown: another chain or arm of the molecule)
constant: B4 constant with C189Q
Turning to B32, the Kd turned out to be 0.0219 µM.

B33: equine IgG4 K311D (antibody, part only; not given: variable domains, not shown: another chain or arm of the molecule; small tags and cut ends)
constant: B4 constant with C189D
Molecule B33 returned an equilibrium dissociation constant (Kd) of 0.0643 µM.

B34: equine IgG4 A426S (antibody, part only; not given: variable domains, not shown: another chain or arm of the molecule)
constant: B4 constant with C189K, A306S
On to B34, for which the Kd was found to be 0.0211 µM.

B35: equine IgG4 A426M (antibody, part only; not given: Variable domains, not shown: another chain or arm of the molecule)
constant: B4 constant with C189K, A306M
B35: the Kd came to 0.0185 µM.

B36: equine IgG4 A426F (antibody, part only; not given: variable domains, not shown: another chain or arm of the molecule)
constant: B4 constant with C189K, A306F
In the case of B36, the Kd was found to be 0.0176 µM.

B37: equine IgG4 K311Y (antibody, part only; not given: variable domains, not shown: another chain or arm of the molecule)
constant: B4 constant with C189Y
On to B37, for which the Kd was determined as 0.0213 µM.

B38: equine IgG4 K311F (antibody, part only; not given: variable domains, not shown: another chain or arm of the molecule; small tags and cut ends)
constant: B4 constant with C189F
With B38, the Kd was found to be 0.0418 µM.

B39: equine IgG4 K311I (antibody, part only; not given: variable domains, not shown: another chain or arm of the molecule; small tags and cut ends)
constant: B4 constant with C189I
In turn, B39 came in with a Kd of 0.0306 µM.

These data come from US20260070987A1.
